Measurements as given in patent US20110257371A1 (Teva, published 2011).
Where no end group is shown, it is not given here. The star is where a group is joined. Biotin = O=C1N[C@H]2[C@H](CS[C@H]2CCCCC(=O)*)N1

Experiments:
[1] = molecular target: T1, K35A; experiment: Biacore alanine scan, 25 °C, N-biotinylated fragment on SA chip, G1 Fab titrated; against the wild-type 25-37 fragment
T1 sequence (peptide, N-terminal biotin (p-0192)): NNFVPTNVGSAAF

[2] = molecular target: T2, S34A; experiment: as above
T2 sequence (peptide, N-terminal biotin (p-0192)): NNFVPTNVGAKAF

[3] = molecular target: T3, V32A; experiment: as above
T3 sequence (peptide, N-terminal biotin (p-0192)): NNFVPTNAGSKAF

[4] = molecular target: T4, F37A (ends and bridges not checked); experiment: as above
T4 peptide: Biotin-NNFVPTNVGSKAA
Method: (§1) Interaction analysis was conducted at 25° C. on a Biacore 3000™ system equipped with streptavidin-coated (SA) sensor chips (Biacore AB, Uppsala, Sweden) using a standard Biacore running buffer (HBS-P). […] Each amino acid between position 27-37 was then mutated individually to alanine and expressed the fold loss in affinity compared to the wild-type fragment. […] Fab fragments were titrated over the chip using 1 μM as the top concentration of a two-fold dilution series. Association and dissociation phases were monitored at 100 μl/min for 1 minute and 5 minutes respectively. Surfaces were regenerated with a mixture of 35% ethanol+25mM NaOH+0.5M NaCl.

[5] = molecular target: T5, G33A (ends and bridges not checked); experiment: as above
T5 peptide: Biotin-NNFVPTNVASKAF
Method: as §1

[6] = molecular target: T6, human α-CGRP (human, not fully specified; C-terminal amide (CONH2) as printed; N-biotinylated in the Biacore assays); experiment: Biacore, N-biotin-CGRP on chip, 25 C
T6 construct: Full-length 37-residue peptide; also called α-Hu; α-human
T6 peptide: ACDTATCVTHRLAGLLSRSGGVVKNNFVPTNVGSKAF

[7] = molecular target: T7, rat α-CGRP (rat, not fully specified; C-terminal amide (CONH2) as printed; N-biotinylated in the Biacore assays); experiment: Biacore, N-biotin-CGRP on chip, 25 C
T7 construct: also called α-Rat; α-rat
T7 peptide: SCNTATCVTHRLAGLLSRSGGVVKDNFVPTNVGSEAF

[8] = molecular target: T6, human α-CGRP; experiment: Biacore, N-biotin-CGRP on chip, 37 C
[9] = molecular target: T8, human β-CGRP (human, not fully specified; C-terminal amide (CONH2) as printed; N-biotin on chip); experiment: Biacore, N-biotin-CGRP on chip, 37 C
T8 construct: also called β-human
T8 peptide: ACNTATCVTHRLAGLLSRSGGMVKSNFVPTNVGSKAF

[10] = molecular target: T7, rat α-CGRP; experiment: Biacore, N-biotin-CGRP on chip, 37 C
[11] = molecular target: T9, rat β-CGRP (rat, not fully specified; C-terminal amide (CONH2) as printed; N-biotin on chip); experiment: Biacore, N-biotin-CGRP on chip, 37 C
T9 construct: also called β-rat
T9 peptide: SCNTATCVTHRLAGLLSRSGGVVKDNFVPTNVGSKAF

[12] = molecular target: T6, human α-CGRP; experiment: Biacore, ratio of KD at 25 C, reference rat α-CGRP

Binder	Fold loss in affinity [1] [fold]	Fold loss in affinity [2] [fold]	Fold loss in affinity [3] [fold]	Fold loss in affinity [4] [fold]	Fold loss in affinity [5] [fold]	T1/2 [6] [h]	T1/2 [7] [h]	T1/2 [8] [h]	T1/2 [9] [h]	T1/2 [10] [h]	T1/2 [11] [h]	fold more potent than for rat α-CGRP [12] [fold]
Fab fragment of antibody G1 (Fab, V domains shown, also called Purified Fab fragments of antibody G1) VH: EVQLVESGGGLVQPGGSLRLSCAASGFTFSNYWISWVRQAPGKGLEWVAEIRSESDASATHYAEAVKGRFTISRDNAKNSLYLQMNSLRAEDTAVYYCLAYFDYGLAIQNYWGQGTLVTVSS VL: EIVLTQSPATLSLSPGERATLSCKASKRVTTYVSWYQQKPGQAPRLLIYGASNRYLGIPARFSGSGSGTDFTLTISSLEPEDFAVYYCSQSYNYPYTFGQGTKLEIK	8.1	10.9	6.1	339	504	–	–	–	–	–	–	–
antibody G1 (antibody, human IgG2, kappa, V domains shown, Humanized IgG2 delta-a monoclonal derived from muMAb7E9; heavy chain entry includes the modified IgG2 constant region; also called anti-CGRP antibody G1) VH: EVQLVESGGGLVQPGGSLRLSCAASGFTFSNYWISWVRQAPGKGLEWVAEIRSESDASATHYAEAVKGRFTISRDNAKNSLYLQMNSLRAEDTAVYYCLAYFDYGLAIQNYWGQGTLVTVSS VL: EIVLTQSPATLSLSPGERATLSCKASKRVTTYVSWYQQKPGQAPRLLIYGASNRYLGIPARFSGSGSGTDFTLTISSLEPEDFAVYYCSQSYNYPYTFGQGTKLEIKR	–	–	–	–	–	24.7	3.12	5.3	2.76	0.48	2.45	40
